Experimental findings from patent publication US20240131074A1 (TENEOBIO, published 2024) are described below.

Test [1] deals with human PSMA protein (ELISA) (human, UniProt Q04609 44-750, limits assumed). Nature of the test: ELISA on human PSMA protein. As to the method:
The two indicated antibodies were tested for binding in a standard ELISA assay to human PSMA. The human PSMA protein was used at a concentration of 2 μg/mL to capture UniAbs at 50 ng/mL. Antibody binding was detected with a goat anti-human IgG HRP conjugated antibody (ThermoFisher 31413). All antibodies were diluted in 1× PBS with 0.05% Tween-20 and 1% dry milk powder.

For test [2], the target named is T1, human PSMA expressed on cells (LNCaP, 22Rv1, PC3 cells stably transfected to express human PSMA) (human, UniProt Q04609 1-750).
T1 construct: whole, on cells; Type II transmembrane protein; The background section calls it a non-covalent homodimer; also called Prostate Specific Membrane Antigen; Glutamate Carboxypeptidase II
Briefly: cell-binding assay on PSMA+ cells.

T1 sequence (Q04609 whole entry): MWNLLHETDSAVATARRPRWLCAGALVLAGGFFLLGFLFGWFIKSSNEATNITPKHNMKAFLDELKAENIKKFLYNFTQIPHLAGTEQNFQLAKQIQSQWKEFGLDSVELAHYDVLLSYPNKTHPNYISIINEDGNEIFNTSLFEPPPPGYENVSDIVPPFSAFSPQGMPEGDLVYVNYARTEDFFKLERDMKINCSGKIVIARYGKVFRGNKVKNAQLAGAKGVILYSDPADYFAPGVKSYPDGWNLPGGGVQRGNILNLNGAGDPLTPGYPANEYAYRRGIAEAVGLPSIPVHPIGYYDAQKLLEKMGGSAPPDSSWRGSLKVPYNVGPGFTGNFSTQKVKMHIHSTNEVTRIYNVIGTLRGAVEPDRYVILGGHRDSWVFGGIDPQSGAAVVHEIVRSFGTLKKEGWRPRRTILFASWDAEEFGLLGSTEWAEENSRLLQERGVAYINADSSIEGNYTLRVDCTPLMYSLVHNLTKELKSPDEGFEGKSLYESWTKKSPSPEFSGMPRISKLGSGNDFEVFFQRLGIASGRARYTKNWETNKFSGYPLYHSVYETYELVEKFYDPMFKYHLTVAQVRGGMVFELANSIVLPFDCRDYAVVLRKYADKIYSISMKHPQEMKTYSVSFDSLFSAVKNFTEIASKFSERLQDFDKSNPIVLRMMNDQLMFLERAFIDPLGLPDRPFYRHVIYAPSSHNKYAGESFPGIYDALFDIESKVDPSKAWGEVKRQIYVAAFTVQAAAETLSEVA
Sequence of human PSMA protein (ELISA) (Q04609 44-750 limits assumed): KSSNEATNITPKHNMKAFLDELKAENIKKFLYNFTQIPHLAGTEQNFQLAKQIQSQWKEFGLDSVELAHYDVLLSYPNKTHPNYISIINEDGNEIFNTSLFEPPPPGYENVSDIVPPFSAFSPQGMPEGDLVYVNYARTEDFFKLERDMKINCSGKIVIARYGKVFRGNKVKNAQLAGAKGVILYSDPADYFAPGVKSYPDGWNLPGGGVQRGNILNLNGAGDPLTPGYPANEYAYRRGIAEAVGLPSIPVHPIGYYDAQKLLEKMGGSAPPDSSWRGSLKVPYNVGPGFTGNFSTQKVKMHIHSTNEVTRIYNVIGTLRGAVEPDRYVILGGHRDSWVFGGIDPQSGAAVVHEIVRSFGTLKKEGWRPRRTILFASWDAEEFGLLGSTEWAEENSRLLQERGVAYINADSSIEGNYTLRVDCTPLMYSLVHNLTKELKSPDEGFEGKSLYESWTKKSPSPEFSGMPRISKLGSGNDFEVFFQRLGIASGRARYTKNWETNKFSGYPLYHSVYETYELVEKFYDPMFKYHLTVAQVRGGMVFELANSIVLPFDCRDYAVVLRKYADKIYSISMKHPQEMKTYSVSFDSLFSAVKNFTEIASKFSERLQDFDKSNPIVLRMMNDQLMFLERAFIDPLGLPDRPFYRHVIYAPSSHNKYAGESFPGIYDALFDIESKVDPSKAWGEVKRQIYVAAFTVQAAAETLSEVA

B1: Anti-PSMA heavy chain-only antibody (UniAb) Clone ID 325972 (antibody, V domains shown)
VH: EVQLLESGGGVVQPGRSLRLSCAASGFSFSGYGMHWVRQAPGKEREWVAVISYDGSNKYYADSVKGRFTISRDNSKNTLYLQMNSLRAEDTAVYYCAKDANWGQHPDHTSFDYRGQGTLVTVSS
notes: Heavy chain-only antibody with no light chain
Take B1: the binding result in test [1] and in test [2] was “binds” in each case.

B2: Anti-PSMA heavy chain-only antibody (UniAb) Clone ID 325795 (antibody, V domains shown)
VH: EVQLLESGGGLVQPGGSLRLSCAASGFTFKFYAMSWVRQAPGKGPEWVSVISGSGGSTYYADSVKGRFTISRDNSKNTLHLQMNSLRAEDTAVYFCAKEIAEASRGFDYRGQGTLVTVSS
notes: as for B1
Turning to B2, the binding result in test [1] and in test [2] was “binds” each time.
